In PMC6092412:

Columns and labels:
[1] = biological target: FlhF-His6 (Vibrio alginolyticus FlhF with a C-terminal His6 tag) (V. alginolyticus)
[2] = biological target: FlhF-His6 (Vibrio alginolyticus FlhF with a C-terminal His6 tag) (V. alginolyticus); test: SEC; purified FlhF kept on ice 10 min with 1 mM GTP; SuperDex 75 Increase in 20 mM Tris-HCl pH 8.0, 300 mM NaCl, 10 mM MgCl2, 1 mM GTP; fractions blotted with anti-FlhF antibody

GTPase activity of FlhF: inorganic phosphate released in 30 min by 1 μM FlhF mixed with 1 μM FlhG (FlhF alone 5.3 μM; background sample 4.3 μM) [1] [µM]	stoichiometry N [2]	Substance
8.5		His-tagged FlhG (his6-tev-flhG in pTrcHisB) (enzyme)
	2	FlhF-His6 (Vibrio alginolyticus FlhF with a C-terminal His6 tag) (enzyme)
